From article PMC12843318, “Zinc-Finger 5 Is an Activation Domain in the Saccharomyces cerevisiae Stress-Responsive Transcription Factor Fzf1”

Key:
[1] = biological target: T1, Fzf1-N117 (Saccharomyces cerevisiae, UniProt P32805 1-117); assay: EMSA; poly dI-dC, BSA; EMSA: 0.1 pmol dsDNA probe, 2 ng BSA, 0.5 ug poly dI-dC (added after incubation), EMSA binding buffer (composition, salt and pH not given), 20 min on ice, 6% native PAGE; protein 0-150 nM; conditions: protein: recombinant; tags: N-terminal GST removed by PreScission protease; blunt
T1 sequence: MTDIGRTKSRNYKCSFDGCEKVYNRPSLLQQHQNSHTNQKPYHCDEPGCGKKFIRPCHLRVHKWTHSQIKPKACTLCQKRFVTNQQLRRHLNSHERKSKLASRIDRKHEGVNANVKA

[2] = biological target: T2, Fzf1 (Saccharomyces cerevisiae, UniProt P32805 1-299); assay: as above; conditions: protein: recombinant; tags: GST fusion from pGEX-6p-1 (pGEX-FZF1); tag removal by PreScission described only for N117; blunt
T2 sequence: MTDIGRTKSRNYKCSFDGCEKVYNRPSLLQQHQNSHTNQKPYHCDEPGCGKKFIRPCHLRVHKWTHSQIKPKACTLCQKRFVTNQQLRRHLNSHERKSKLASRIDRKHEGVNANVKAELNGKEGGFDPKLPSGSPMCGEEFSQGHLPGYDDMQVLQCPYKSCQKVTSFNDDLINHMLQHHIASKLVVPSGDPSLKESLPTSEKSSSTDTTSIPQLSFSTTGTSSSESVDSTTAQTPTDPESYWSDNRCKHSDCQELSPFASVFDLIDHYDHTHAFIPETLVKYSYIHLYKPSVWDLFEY

B1: SSU1-CS2 (dsDNA)
DNA 1: GAAAAAAAAATGATAGTTTGCAGGAAG
DNA 2: CTTCCTGCAAACTATCATTTTTTTTTC
For B1, the Kd [1] was about 30 nM and the Kd [2] was about 35 nM.
